Data: the supplement of paper PMC9112550, “Optimization of the antimicrobial peptide Bac7 by deep mutational scanning” (BMC Biology, 2022)

Tested on: Escherichia coli TOP10
Experiment: shrunken log2 fold change of peptide-encoding DNA abundance (4.5 h post-induction vs induction); higher = less antimicrobial activity (less host growth inhibition)
Settings: time post-induction: 4.5 h; library: site-saturation at positions 5, 18, 19, 20
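Further: peptides expressed intracellularly from a pBAD plasmid library in pooled LB shake-flask culture, induced with 0.3% L-arabinose, DNA abundance read by NGS, three biological replicates, DESeq2 with apeglm shrinkage.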

Row | Sequence | shrunken log2 fold change
1 | RRIRARPPRLPRPRPRPPHMPRP | 0.661
2 | RRIRYRPPRLPRPRPRPKENPRP | -0.0772
3 | RRIRVRPPRLPRPRPRPHFYPRP | -0.173
4 | RRIRGRPPRLPRPRPRPFWNPRP | 0.087
5 | RRIRRRPPRLPRPRPRPHGVPRP | 0.055
6 | RRIRDRPPRLPRPRPRPKPCPRP | 0.0155
7 | RRIRDRPPRLPRPRPRPMAEPRP | 0.902
8 | RRIRFRPPRLPRPRPRPSQWPRP | -0.171
9 | RRIRDRPPRLPRPRPRPRGGPRP | 0.726
10 | RRIRNRPPRLPRPRPRPMRAPRP | 0.517
11 | RRIRERPPRLPRPRPRPSEHPRP | -0.0752
12 | RRIRGRPPRLPRPRPRPISNPRP | 0.0729
13 | RRIRIRPPRLPRPRPRPRARPRP | 0.456
14 | RRIRCRPPRLPRPRPRPYNFPRP | -0.497
15 | RRIRRRPPRLPRPRPRPRYLPRP | -0.0373
16 | RRIRKRPPRLPRPRPRPGDRPRP | 0.886
17 | RRIRHRPPRLPRPRPRPGHCPRP | -0.133
18 | RRIRDRPPRLPRPRPRPSSYPRP | -0.738
19 | RRIRKRPPRLPRPRPRPPDNPRP | 0.0807
20 | RRIRGRPPRLPRPRPRPRPDPRP | 0.94
21 | RRIRYRPPRLPRPRPRPDYVPRP | -0.447
22 | RRIRKRPPRLPRPRPRPHLCPRP | 0.0127
23 | RRIRCRPPRLPRPRPRPDHYPRP | -0.211
24 | RRIRWRPPRLPRPRPRPVREPRP | 0.0727
25 | RRIRMRPPRLPRPRPRPIPIPRP | 0.138

Row | Sequence | shrunken log2 fold change
26 | RRIRNRPPRLPRPRPRPEQEPRP | 0.0175
27 | RRIRWRPPRLPRPRPRPGWQPRP | 0.0857
28 | RRIRPRPPRLPRPRPRPEIYPRP | 0.0694
29 | RRIRTRPPRLPRPRPRPSHTPRP | -0.0162
30 | RRIRCRPPRLPRPRPRPPCSPRP | -0.315
31 | RRIRHRPPRLPRPRPRPFIAPRP | -0.272
32 | RRIRQRPPRLPRPRPRPKPWPRP | 0.502
33 | RRIRIRPPRLPRPRPRPVILPRP | -0.423
34 | RRIRWRPPRLPRPRPRPHCLPRP | 0.0644
35 | RRIRVRPPRLPRPRPRPIGQPRP | 0.0922
36 | RRIRFRPPRLPRPRPRPKDCPRP | 0.104
37 | RRIRERPPRLPRPRPRPLQRPRP | -0.131
38 | RRIRGRPPRLPRPRPRPSEYPRP | -0.0981
39 | RRIRARPPRLPRPRPRPRCWPRP | 0.601
40 | RRIRQRPPRLPRPRPRPMVRPRP | -0.17
41 | RRIRVRPPRLPRPRPRPSTQPRP | -0.0637
42 | RRIRFRPPRLPRPRPRPDVQPRP | -0.0115
43 | RRIRARPPRLPRPRPRPKAEPRP | 0.821
44 | RRIRMRPPRLPRPRPRPWYKPRP | 0.00884
45 | RRIRNRPPRLPRPRPRPKHKPRP | -0.0428
46 | RRIRPRPPRLPRPRPRPIIQPRP | -0.402
47 | RRIRGRPPRLPRPRPRPTSFPRP | 0.449
48 | RRIRARPPRLPRPRPRPTRRPRP | 1.1
49 | RRIRDRPPRLPRPRPRPNPCPRP | -0.328
50 | RRIRGRPPRLPRPRPRPHYVPRP | -0.0585

Row | Sequence | shrunken log2 fold change
51 | RRIRSRPPRLPRPRPRPSQDPRP | -0.296
52 | RRIRMRPPRLPRPRPRPLEMPRP | 1.4
53 | RRIRPRPPRLPRPRPRPRVRPRP | 0.217
54 | RRIRDRPPRLPRPRPRPAKFPRP | 0.0399
55 | RRIRPRPPRLPRPRPRPGEFPRP | 0.318
56 | RRIRVRPPRLPRPRPRPNVMPRP | -0.173
57 | RRIRLRPPRLPRPRPRPYIMPRP | -1.45
58 | RRIRDRPPRLPRPRPRPMKFPRP | -0.00192
59 | RRIRERPPRLPRPRPRPTAYPRP | -0.166
60 | RRIRRRPPRLPRPRPRPNYNPRP | -0.556
61 | RRIRSRPPRLPRPRPRPVPSPRP | 0.391
62 | RRIRCRPPRLPRPRPRPVSWPRP | 0.49
63 | RRIRFRPPRLPRPRPRPEQKPRP | 0.341
64 | RRIRCRPPRLPRPRPRPDWSPRP | 0.0534
65 | RRIRMRPPRLPRPRPRPHAVPRP | 0.353
66 | RRIRKRPPRLPRPRPRPGVDPRP | 0.824
67 | RRIRTRPPRLPRPRPRPTIDPRP | -0.319
68 | RRIRQRPPRLPRPRPRPHQWPRP | 0.323
69 | RRIRNRPPRLPRPRPRPPCIPRP | -0.662
70 | RRIRHRPPRLPRPRPRPGASPRP | -0.196
71 | RRIRTRPPRLPRPRPRPKGLPRP | -0.117
72 | RRIRIRPPRLPRPRPRPDGEPRP | 0.0147
73 | RRIRDRPPRLPRPRPRPCWDPRP | 0.392
74 | RRIRMRPPRLPRPRPRPAMSPRP | 0.177
75 | RRIRTRPPRLPRPRPRPHCWPRP | -0.0903

Row | Sequence | shrunken log2 fold change
76 | RRIRGRPPRLPRPRPRPTGTPRP | 0.517
77 | RRIRQRPPRLPRPRPRPCTHPRP | -0.502
78 | RRIRWRPPRLPRPRPRPQNQPRP | -0.265
79 | RRIRNRPPRLPRPRPRPWPFPRP | 0.0256
80 | RRIRERPPRLPRPRPRPDIVPRP | -0.158
81 | RRIRFRPPRLPRPRPRPLHCPRP | 0.0254
82 | RRIRKRPPRLPRPRPRPNQGPRP | 0.079
83 | RRIRIRPPRLPRPRPRPHQRPRP | -0.137
84 | RRIRGRPPRLPRPRPRPQYCPRP | 0.192
85 | RRIRNRPPRLPRPRPRPDTKPRP | -0.0152
86 | RRIRGRPPRLPRPRPRPQLAPRP | 1.19
87 | RRIRMRPPRLPRPRPRPREQPRP | 0.0355
88 | RRIRLRPPRLPRPRPRPYTEPRP | -0.284
89 | RRIRDRPPRLPRPRPRPPQPPRP | 0.387
90 | RRIRLRPPRLPRPRPRPNGTPRP | -0.221
91 | RRIRERPPRLPRPRPRPWAEPRP | 0.0285
92 | RRIRTRPPRLPRPRPRPTHQPRP | 0.926
93 | RRIRRRPPRLPRPRPRPGPEPRP | 0.662
94 | RRIRVRPPRLPRPRPRPCQQPRP | 0.00938
95 | RRIRIRPPRLPRPRPRPTQLPRP | 0.31
96 | RRIRGRPPRLPRPRPRPTNLPRP | -0.0172
97 | RRIRDRPPRLPRPRPRPMGQPRP | 0.0515
98 | RRIRKRPPRLPRPRPRPFRWPRP | 0.0626
99 | RRIRERPPRLPRPRPRPMAEPRP | 0.0131
100 | RRIRIRPPRLPRPRPRPFWNPRP | -0.277

Row | Sequence | shrunken log2 fold change
101 | RRIRIRPPRLPRPRPRPLFIPRP | -0.525
102 | RRIRARPPRLPRPRPRPMTLPRP | 0.151
103 | RRIRNRPPRLPRPRPRPSYDPRP | -0.452
104 | RRIRWRPPRLPRPRPRPNKKPRP | -0.076
105 | RRIRRRPPRLPRPRPRPEKNPRP | 0.289
106 | RRIRMRPPRLPRPRPRPLCRPRP | 0.359
107 | RRIRRRPPRLPRPRPRPYVCPRP | -0.374
108 | RRIRYRPPRLPRPRPRPEETPRP | -0.119
109 | RRIRIRPPRLPRPRPRPYKNPRP | -0.814
110 | RRIRLRPPRLPRPRPRPFFKPRP | -0.169
111 | RRIRTRPPRLPRPRPRPIQHPRP | -0.403
112 | RRIRERPPRLPRPRPRPYDVPRP | -0.000921
113 | RRIRKRPPRLPRPRPRPPRMPRP | 0.648
114 | RRIRYRPPRLPRPRPRPYFQPRP | -1.6
115 | RRIRKRPPRLPRPRPRPLFQPRP | 0.181
116 | RRIRQRPPRLPRPRPRPCFGPRP | 0.0162
117 | RRIRMRPPRLPRPRPRPGQRPRP | 1.08
118 | RRIRARPPRLPRPRPRPWILPRP | 0.223
119 | RRIRERPPRLPRPRPRPRLPPRP | 0.35
120 | RRIRKRPPRLPRPRPRPGQTPRP | 0.611
121 | RRIRIRPPRLPRPRPRPHAFPRP | -0.0152
122 | RRIRHRPPRLPRPRPRPTYKPRP | -0.333
123 | RRIRLRPPRLPRPRPRPKGWPRP | 0.342
124 | RRIRGRPPRLPRPRPRPCQWPRP | 0.0251
125 | RRIRNRPPRLPRPRPRPCGGPRP | -0.0209
